According to patent publication US20220153847A1 (Chugai, published 2022):
Positions count from the first letter of the chain named.

T1: HLA-DQ2.5 on HLA-DQ2.5-positive PBMC B cells (human, UniProt P01909 24-254; P01920 33-261)
T1 construct: whole, on cells; also called HLA-DQ2.5+ PBMC B cell
T1 MHC II alpha: not shown
T1 MHC II beta: not shown

B1: DQN0344xx//DQN0385ee (bispecific antibody, human IgG1, kappa)
heavy 1: QSLEESGGGLVKPGGTLTLTCTASGFSFSSSYWMCWVRQAPGKGLEWVACVYGGSDTTYYASWTKGRFTISKGSSTTVALQVTSLTAADTATYFCARDPLNYYYYGELNLWGPGTLVTVSSASTKGPSVFPLAPSSKSTSGGTAALGCLVKDYFPEPVTVSWNSGALTSGVHTFPAVLQSSGLYSLSSVVTVPSSSLGTQTYICNVNHKPSNTKVDKRVEPKSCDKTHTCPPCPAPELRRGPSVFLFPPKPKDTLMISRTPEVTCVVVDVSHEDPEVKFNWYVDGVEVHNAKTKPREEQYNSTYRVVSVLTVLHQDWLNGKEYKCKVSNKALPAPIEKTISKAKGQPREPQVYTLPPSREEMTKNQVSLTCLVKGFYPSDIAVEWESNGQPENNYKTTPPYLDSDGSFFLYSKLTVDKSRWQQGNVFSCSVMHEALHNHYTQESLSLSP
light 1: AVVLTQTASPVSAAVGGTVTIRCQATENIYSGLAWYQQKPGQPPKVLIYYVSTLASGVPSRFKGSGSGTEYTLTISGVQCDDAATYYCQTYHDISNVTFGGGTKVEIKRTVAAPSVFIFPPSDEQLKSGTASVVCLLNNFYPREAKVQWKVDNALQSGNSQESVTEQDSKDCTYSLSSTLTLSKADYEKHKVYACEVTHQGLSSPVTKSFNRGEC
heavy 2: QEQLEESGGDLVKPGASLTLTCTASGFSFYSSYWICWVRQAPGKGLEWIACIDTGSGSIDYASWVNGRFTISKTSSTTVTLQMTSLTVADTATYFCARDIGIDYNFWGPGTLVTVSSASTKGPSVFPLAPSSKSTSGGTAALGCLVKDYFPEPVTVSWNSGALTSGVHTFPAVLQSSGLYSLSSVVTVPSSSLGTQTYICNVNHKPSNTKVDKRVEPKSCDKTHTCPPCPAPELRRGPSVFLFPPKPKDTLMISRTPEVTCVVVDVSHEDPEVKFNWYVDGVEVHNAKTKPREEQYNSTYRVVSVLTVLHQDWLNGKEYKCKVSNKALPAPIEKTISKAKGQPREPQVYTLPPSRKEMTKNQVSLTCLVKGFYPSDIAVEWESNGQPENNYKTTPPYLDSDGSFFLYSKLTVDKSRWQQGNVFSCSVMHEALHNHYTQKSLSLSP
light 2: AFELTQTPSFVEAAVGGTVTIKCQATQSISSYLNWYQQKPGQPPKLLIYYASTLASGVPSRFKGSGSGTEFSLTISGVECADAATYYCHYGISYVSFGGGTKVEIKRTVAAPSVFIFPPSDEQLKSGTASVVCLLNNFYPREAKVQWKVDNALQSGNSQESVTEQDSKDCTYSLSSTLTLSKADYEKHKVYACEVTHQGLSSPVTKSFNRGEC
B2: DQN0385ee//IC17 (bispecific antibody, human IgG1, kappa)
heavy 1: B1 heavy 2 with K356E, K439E
light 1: B1 light 2
heavy 2: QVQLQQSGPQLVRPGASVKISCKASGYSFTSYWMHWVNQRPGQGLEWIGMIDPSYSETRLNQKFKDKATLTVDKSSSTAYMQLSSPTSEDSAVYYCALYGNYFDYWGQGTTLTVSSASTKGPSVFPLAPSSKSTSGGTAALGCLVKDYFPEPVTVSWNSGALTSGVHTFPAVLQSSGLYSLSSVVTVPSSSLGTQTYICNVNHKPSNTKVDKRVEPKSCDKTHTCPPCPAPELRRGPSVFLFPPKPKDTLMISRTPEVTCVVVDVSHEDPEVKFNWYVDGVEVHNAKTKPREEQYNSTYRVVSVLTVLHQDWLNGKEYKCKVSNKALPAPIEKTISKAKGQPREPQVYTLPPSRKEMTKNQVSLTCLVKGFYPSDIAVEWESNGQPENNYKTTPPYLDSDGSFFLYSKLTVDKSRWQQGNVFSCSVMHEALHNHYTQKSLSLSP
light 2: DIQMTQSSSSFSVSLGDRVTITCKASEDIYNRLAWYQQKPGNAPRLLISGATSLETGVPSRFSGSGSGKDYTLSITSLQTEDVATYYCQQYWSTPYTFGGGTKLEVKRTVAAPSVFIFPPSDEQLKSGTASVVCLLNNFYPREAKVQWKVDNALQSGNSQESVTEQDSKDSTYSLSSTLTLSKADYEKHKVYACEVTHQGLSSPVTKSFNRGEC

Legend:
[1] = biological target: T2, HLA-DQ2.5/hordein 1 peptide complex on Ba/F3 cells (human); assay: FACS, Ba/F3 cells; IC17=0%, DQN0139bb//IC17=100%;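 also: flow cytometry binding of anti-HLA-DQ antibodies at 5 µg/mL, incubated 30 min at room temperature with Ba/F3 lines presenting HLA-DQ/peptide complexes; antibody tested at 5 microgram/mL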
T2 construct: whole, on cells; also called Ba/F3-HLA-DQ2.5/hordein 1
From the text: (§1) The binding of anti-HLA-DQ antibodies to Ba/F3-HLA-DQ2.5, Ba/F3-HLA-DQ2.2, Ba/F3-HLA-DQ7.5, Ba/F3-HLA-DQ8, Ba/F3-HLA-DQ5.1, Ba/F3-HLA-DQ6.3, Ba/F3-HLA-DQ7.3, Ba/F3-HLA-DR, Ba/F3-HLA-DP, Ba/F3-HLA-DQ2.5/CLIP, Ba/F3-HLA-DQ2.5/HBV, Ba/F3-HLA-DQ2.5/Salmonella, Ba/F3-HLA-DQ2.5/TPO, Ba/F3-HLA-DQ2.5/M. bovis, Ba/F3-HLA-DQ2.5/alpha 1 gliadin, Ba/F3-HLA-DQ2.5/alpha 2 gliadin, Ba/F3-HLA-DQ2.5/gamma 1 gliadin, Ba/F3-HLA-DQ2.5/gamma 2 gliadin, Ba/F3-HLA-DQ2.5/omega 1 gliadin, Ba/F3-HLA-DQ2.5/omega 2 gliadin, Ba/F3-HLA-DQ2.5/BC hordein, Ba/F3-HLA-DQ2.5/alpha 3 gliadin, Ba/F3-HLA-DQ2.5/alpha 1b gliadin, Ba/F3-HLA-DQ2.5/gamma 4b gliadin, Ba/F3-HLA-DQ2.5/avenin 1, Ba/F3-HLA-DQ2.5/avenin 2, Ba/F3-HLA-DQ2.5/avenin 3, Ba/F3-HLA-DQ2.5/hordein 1, Ba/F3-HLA-DQ2.5/hordein 2, Ba/F3-HLA-DQ2.5/secalin 1, Ba/F3-HLA-DQ2.5/secalin 2, Ba/F3-HLA-DQ2.5/14mer 1, Ba/F3-HLA-DQ2.5/33mer gliadin, Ba/F3-HLA-DQ2.5/26mer gliadin, was tested. 5 microgram/mL of each of the anti-HLA-DQ antibodies was incubated with each cell line for 30 minutes at room temperature and washed with FACS buffer (2% FBS, 2 mM EDTA in PBS).

[2] = biological target: T3, HLA-DQ2.5/26mer gliadin peptide complex on Ba/F3 cells (human); assay: FACS, Ba/F3 cells; IC17=0%, DQN0139bb//IC17=100%;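 also: flow cytometry binding of anti-HLA-DQ antibodies at 5 µg/mL, incubated 30 min at room temperature with Ba/F3 lines presenting HLA-DQ/peptide complexes; antibody tested at 5 microgram/mL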
T3 construct: whole, on cells; also called Ba/F3-HLA-DQ2.5/26mer gliadin
From the text: as §1

[3] = biological target: T4, HLA-DQ2.5/gamma 2 gliadin peptide complex on Ba/F3 cells (human); assay: FACS, Ba/F3 cells; IC17=0%, DQN0139bb//IC17=100%;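 also: flow cytometry binding of anti-HLA-DQ antibodies at 5 µg/mL, incubated 30 min at room temperature with Ba/F3 lines presenting HLA-DQ/peptide complexes; antibody tested at 5 microgram/mL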
T4 construct: whole, on cells; also called Ba/F3-HLA-DQ2.5/gamma 2 gliadin; HLA-DQ2.5/g2 gliadin
From the text: as §1

[4] = biological target: T5, HLA-DQ2.5/omega 2 gliadin peptide complex on Ba/F3 cells (human); assay: FACS, Ba/F3 cells; IC17=0%, DQN0139bb//IC17=100%;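 also: flow cytometry binding of anti-HLA-DQ antibodies at 5 µg/mL, incubated 30 min at room temperature with Ba/F3 lines presenting HLA-DQ/peptide complexes; antibody tested at 5 microgram/mL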
T5 construct: whole, on cells; also called Ba/F3-HLA-DQ2.5/omega 2 gliadin; HLA-DQ2.5/w2 gliadin
From the text: as §1

[5] = biological target: T6, HLA-DQ2.5/gamma 1 gliadin peptide complex on Ba/F3 cells (human); assay: FACS, Ba/F3 cells; IC17=0%, DQN0139bb//IC17=100%
T6 construct: whole, on cells; also called Ba/F3-HLA-DQ2.5/gamma 1 gliadin; HLA-DQ2.5/g1 gliadin
From the text: as §1

[6] = biological target: T7, HLA-DQ2.5/gamma 4b gliadin peptide complex on Ba/F3 cells (human); assay: FACS, Ba/F3 cells; IC17=0%, DQN0139bb//IC17=100%
T7 construct: whole, on cells; also called Ba/F3-HLA-DQ2.5/gamma 4b gliadin; HLA-DQ2.5/g4b gliadin
From the text: as §1

[7] = biological target: T8, HLA-DQ2.5/BC hordein peptide complex on Ba/F3 cells (human); assay: FACS, Ba/F3 cells; IC17=0%, DQN0139bb//IC17=100%
T8 construct: whole, on cells; also called Ba/F3-HLA-DQ2.5/BC hordein
From the text: as §1

[8] = biological target: T9, HLA-DQ2.5/omega 1 gliadin peptide complex on Ba/F3 cells (human); assay: FACS, Ba/F3 cells; IC17=0%, DQN0139bb//IC17=100%
T9 construct: whole, on cells; also called Ba/F3-HLA-DQ2.5/omega 1 gliadin; HLA-DQ2.5/w1 gliadin
From the text: as §1

[9] = biological target: T10, HLA-DQ2.5/secalin 2 peptide complex on Ba/F3 cells (human); assay: FACS, Ba/F3 cells; IC17=0%, DQN0139bb//IC17=100%
T10 construct: whole, on cells; also called Ba/F3-HLA-DQ2.5/secalin 2
From the text: as §1

[10] = biological target: T11, HLA-DQ2.5/avenin 1 peptide complex on Ba/F3 cells (human); assay: FACS, Ba/F3 cells; IC17=0%, DQN0139bb//IC17=100%
T11 construct: whole, on cells; also called Ba/F3-HLA-DQ2.5/avenin 1
From the text: as §1

[11] = biological target: T12, HLA-DQ2.5/secalin 1 peptide complex on Ba/F3 cells (human); assay: FACS, Ba/F3 cells; IC17=0%, DQN0139bb//IC17=100%
T12 construct: whole, on cells; also called Ba/F3-HLA-DQ2.5/secalin 1
From the text: as §1

[12] = biological target: T13, HLA-DQ2.5/hordein 2 peptide complex on Ba/F3 cells (human); assay: FACS, Ba/F3 cells; IC17=0%, DQN0139bb//IC17=100%
T13 construct: whole, on cells; also called Ba/F3-HLA-DQ2.5/hordein 2
From the text: as §1

[13] = biological target: T14, HLA-DQ2.5/CLIP peptide complex on Ba/F3 cells (human); assay: FACS, Ba/F3 cells; IC17=0%, DQN0139bb//IC17=100%
T14 construct: whole, on cells; also called Ba/F3-HLA-DQ2.5/CLIP
From the text: as §1

[14] = biological target: T15, HLA-DQ2.5/alpha 2 gliadin peptide complex on Ba/F3 cells (human); assay: FACS, Ba/F3 cells; IC17=0%, DQN0139bb//IC17=100%
T15 construct: whole, on cells; also called Ba/F3-HLA-DQ2.5/alpha 2 gliadin; HLA-DQ2.5/a2 gliadin
From the text: as §1

[15] = biological target: T16, HLA-DQ2.5/alpha 1 gliadin peptide complex on Ba/F3 cells (human); assay: FACS, Ba/F3 cells; IC17=0%, DQN0139bb//IC17=100%
T16 construct: whole, on cells; also called Ba/F3-HLA-DQ2.5/alpha 1 gliadin; HLA-DQ2.5/a1 gliadin
From the text: as §1

[16] = biological target: T17, HLA-DQ2.5/avenin 3 peptide complex on Ba/F3 cells (human); assay: FACS, Ba/F3 cells; IC17=0%, DQN0139bb//IC17=100%
T17 construct: whole, on cells; also called Ba/F3-HLA-DQ2.5/avenin 3
From the text: as §1

[17] = biological target: T18, HLA-DQ2.5/avenin 2 peptide complex on Ba/F3 cells (human); assay: FACS, Ba/F3 cells; IC17=0%, DQN0139bb//IC17=100%
T18 construct: whole, on cells; also called Ba/F3-HLA-DQ2.5/avenin 2
From the text: as §1

[18] = biological target: T19, HLA-DQ2.5/alpha 3 gliadin peptide complex on Ba/F3 cells (human); assay: FACS, Ba/F3 cells; IC17=0%, DQN0139bb//IC17=100%
T19 construct: whole, on cells; also called Ba/F3-HLA-DQ2.5/alpha 3 gliadin; HLA-DQ2.5/a3 gliadin
From the text: as §1

[19] = biological target: T20, HLA-DQ2.5/alpha 1b gliadin peptide complex on Ba/F3 cells (human); assay: FACS, Ba/F3 cells; IC17=0%, DQN0139bb//IC17=100%
T20 construct: whole, on cells; also called Ba/F3-HLA-DQ2.5/alpha 1b gliadin; HLA-DQ2.5/a1b gliadin
From the text: as §1

[20] = biological target: T21, HLA-DQ2.5/14mer 1 peptide complex on Ba/F3 cells (human); assay: FACS, Ba/F3 cells; IC17=0%, DQN0139bb//IC17=100%
T21 construct: whole, on cells; also called Ba/F3-HLA-DQ2.5/14mer 1
From the text: as §1

[21] = biological target: T1, HLA-DQ2.5 on HLA-DQ2.5-positive PBMC B …; assay: FACS, PBMC B cells; IC17=0%, DQN0139bb//IC17=100%

T14 sequence (P04233 96-124, chain 2 of 2, other chains not shown): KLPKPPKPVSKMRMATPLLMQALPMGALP

Row | Binder | % MFI [1] | % MFI [2] | % MFI [3] | % MFI [4] | % MFI [5] | % MFI [6] | % MFI [7] | % MFI [8] | % MFI [9] | % MFI [10] | % MFI [11] | % MFI [12] | % MFI [13] | % MFI [14] | % MFI [15] | % MFI [16] | % MFI [17] | % MFI [18] | % MFI [19] | % MFI [20] | further results
1 | B1 | 28% | 61.8% | 4.6% | 71.5% | 29.4% | 31.1% | 63.5% | 40% | 43.5% | 29.1% | 33.6% | 92.2% | 1.8% | 52.3% | 58.1% | 15.6% | 26.6% | 36.4% | 61.9% | 27.6% | % MFI [21]: 0.4%
2 | B2 | 24.7% | 70.5% | 3.4% | 75.2% | 26% | 32.4% | 68.1% | 17.2% | 34.4% | 4% | 11.8% | 98.3% | 1.3% | 85.6% | 6% | 0.2% | 8.3% | 20.9% | 19.2% | 23.3% | % MFI [21]: 0.3%
